Experimental data as given in the supplement of paper PMC9112550, “Optimization of the antimicrobial peptide Bac7 by deep mutational scanning” (BMC Biology, 2022).

tested on: Escherichia coli TOP10; assay: shrunken log2 fold change of peptide-encoding DNA abundance (4.5 h post-induction vs induction); higher = less antimicrobial activity (less host growth inhibition); conditions: time post-induction: 4.5 h; library: site-saturation at positions 5, 18, 19, 20
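Note: peptides expressed intracellularly from a pBAD plasmid library in pooled LB shake-flask culture, induced with 0.3% L-arabinose, DNA abundance read by NGS, three biological replicates, DESeq2 with apeglm shrinkage.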

Row | Sequence | shrunken log2 fold change
1 | RRIRFRPPRLPRPRPRPEFEPRP | 0.122
2 | RRIRKRPPRLPRPRPRPNEVPRP | -0.152
3 | RRIRTRPPRLPRPRPRPPVIPRP | 0.213
4 | RRIRKRPPRLPRPRPRPKPNPRP | 0.516
5 | RRIRPRPPRLPRPRPRPGTKPRP | 0.453
6 | RRIRARPPRLPRPRPRPRMIPRP | 0.219
7 | RRIRSRPPRLPRPRPRPAFVPRP | 0.577
8 | RRIRGRPPRLPRPRPRPWVQPRP | 0.0601
9 | RRIRTRPPRLPRPRPRPRTDPRP | -0.0849
10 | RRIRERPPRLPRPRPRPHNWPRP | -0.363
11 | RRIRTRPPRLPRPRPRPEAYPRP | -0.12
12 | RRIRPRPPRLPRPRPRPSNPPRP | -0.0794
13 | RRIRTRPPRLPRPRPRPQCFPRP | 0.0187
14 | RRIRDRPPRLPRPRPRPVSGPRP | 0.088
15 | RRIRCRPPRLPRPRPRPTYCPRP | -0.279
16 | RRIRSRPPRLPRPRPRPKLSPRP | 0.352
17 | RRIRARPPRLPRPRPRPQFGPRP | -0.217
18 | RRIRDRPPRLPRPRPRPLGDPRP | 0.0385
19 | RRIRYRPPRLPRPRPRPGFRPRP | -0.322
20 | RRIRQRPPRLPRPRPRPIRIPRP | 0.0373
21 | RRIRERPPRLPRPRPRPTDFPRP | -0.13
22 | RRIRNRPPRLPRPRPRPWDMPRP | -0.304
23 | RRIRQRPPRLPRPRPRPTALPRP | -0.0491
24 | RRIRMRPPRLPRPRPRPNKHPRP | -0.158
25 | RRIRARPPRLPRPRPRPARIPRP | 0.169

Row | Sequence | shrunken log2 fold change
26 | RRIRSRPPRLPRPRPRPVFDPRP | 0.106
27 | RRIRKRPPRLPRPRPRPERYPRP | -0.0119
28 | RRIRERPPRLPRPRPRPNFDPRP | -0.145
29 | RRIRVRPPRLPRPRPRPRGLPRP | 0.307
30 | RRIRQRPPRLPRPRPRPSHRPRP | -0.0821
31 | RRIRARPPRLPRPRPRPNWSPRP | 0.225
32 | RRIRNRPPRLPRPRPRPWGDPRP | -0.0233
33 | RRIRPRPPRLPRPRPRPVVLPRP | 0.00791
34 | RRIRHRPPRLPRPRPRPQYLPRP | 0.00943
35 | RRIRHRPPRLPRPRPRPQRLPRP | 0.00653
36 | RRIRDRPPRLPRPRPRPEPFPRP | -0.137
37 | RRIRGRPPRLPRPRPRPWTLPRP | 0.161
38 | RRIRWRPPRLPRPRPRPMKGPRP | -0.363
39 | RRIRGRPPRLPRPRPRPMFYPRP | 1.07
40 | RRIRNRPPRLPRPRPRPMGPPRP | 0.0762
41 | RRIRIRPPRLPRPRPRPATIPRP | -0.201
42 | RRIRRRPPRLPRPRPRPNWWPRP | 1.05
43 | RRIRERPPRLPRPRPRPPKGPRP | -0.16
44 | RRIRNRPPRLPRPRPRPSHFPRP | -0.647
45 | RRIRQRPPRLPRPRPRPNLRPRP | 0.0769
46 | RRIRDRPPRLPRPRPRPPNSPRP | -0.0992
47 | RRIRIRPPRLPRPRPRPGANPRP | 0.0193
48 | RRIRERPPRLPRPRPRPPRLPRP | 0.178
49 | RRIRHRPPRLPRPRPRPQIVPRP | -0.238
50 | RRIRERPPRLPRPRPRPNDPPRP | -0.488

Row | Sequence | shrunken log2 fold change
51 | RRIRSRPPRLPRPRPRPVHIPRP | -0.124
52 | RRIRSRPPRLPRPRPRPTKCPRP | -0.258
53 | RRIRIRPPRLPRPRPRPGWDPRP | 0.105
54 | RRIRERPPRLPRPRPRPVVQPRP | -0.104
55 | RRIRSRPPRLPRPRPRPFLRPRP | -0.0915
56 | RRIRQRPPRLPRPRPRPWFHPRP | 0.00902
57 | RRIRCRPPRLPRPRPRPGESPRP | 0.107
58 | RRIRHRPPRLPRPRPRPDCDPRP | -0.243
59 | RRIRTRPPRLPRPRPRPDSVPRP | -0.0144
60 | RRIRQRPPRLPRPRPRPVECPRP | 0.0104
61 | RRIRDRPPRLPRPRPRPRTRPRP | 0.0925
62 | RRIRFRPPRLPRPRPRPRHYPRP | -0.477
63 | RRIRLRPPRLPRPRPRPCSRPRP | 0.06
64 | RRIRGRPPRLPRPRPRPYHFPRP | -0.041
65 | RRIRPRPPRLPRPRPRPIKQPRP | 0.109
66 | RRIRWRPPRLPRPRPRPAQGPRP | 0.27
67 | RRIRTRPPRLPRPRPRPSCMPRP | -0.0847
68 | RRIRYRPPRLPRPRPRPFVPPRP | -0.285
69 | RRIRFRPPRLPRPRPRPHTDPRP | -0.736
70 | RRIRERPPRLPRPRPRPQFYPRP | -0.452
71 | RRIRLRPPRLPRPRPRPLSWPRP | 0.0186
72 | RRIRERPPRLPRPRPRPTYCPRP | 0.0353
73 | RRIRFRPPRLPRPRPRPNMVPRP | -0.124
74 | RRIRIRPPRLPRPRPRPSLFPRP | -0.66
75 | RRIRRRPPRLPRPRPRPWMNPRP | -0.0882

Row | Sequence | shrunken log2 fold change
76 | RRIRTRPPRLPRPRPRPRKTPRP | 0.111
77 | RRIRARPPRLPRPRPRPWDQPRP | 0.353
78 | RRIRVRPPRLPRPRPRPCPKPRP | -0.0457
79 | RRIRWRPPRLPRPRPRPMKEPRP | -0.23
80 | RRIRGRPPRLPRPRPRPSSCPRP | 0.316
81 | RRIRVRPPRLPRPRPRPCKKPRP | -0.433
82 | RRIRTRPPRLPRPRPRPDSRPRP | -0.00822
83 | RRIRARPPRLPRPRPRPDEVPRP | 0.446
84 | RRIRDRPPRLPRPRPRPCYHPRP | -0.019
85 | RRIRQRPPRLPRPRPRPILTPRP | -0.955
86 | RRIRGRPPRLPRPRPRPPKQPRP | 0.292
87 | RRIRIRPPRLPRPRPRPHTWPRP | -0.401
88 | RRIRGRPPRLPRPRPRPNKGPRP | -0.0466
89 | RRIRARPPRLPRPRPRPSDHPRP | -0.134
90 | RRIRCRPPRLPRPRPRPNVHPRP | -0.532
91 | RRIRMRPPRLPRPRPRPCKYPRP | -0.0297
92 | RRIRARPPRLPRPRPRPKLQPRP | 0.64
93 | RRIRDRPPRLPRPRPRPKVNPRP | -0.287
94 | RRIRHRPPRLPRPRPRPCSGPRP | -0.0968
95 | RRIRGRPPRLPRPRPRPVTIPRP | 0.0068
96 | RRIRPRPPRLPRPRPRPPTVPRP | 0.279
97 | RRIRVRPPRLPRPRPRPVYAPRP | -0.00846
98 | RRIRYRPPRLPRPRPRPVNGPRP | -0.338
99 | RRIRARPPRLPRPRPRPESAPRP | 0.858
100 | RRIRYRPPRLPRPRPRPFDMPRP | -0.195

Row | Sequence | shrunken log2 fold change
101 | RRIRSRPPRLPRPRPRPDYVPRP | 0.063
102 | RRIRPRPPRLPRPRPRPCAPPRP | 0.159
103 | RRIRHRPPRLPRPRPRPTHDPRP | 0.124
104 | RRIRKRPPRLPRPRPRPDQVPRP | 0.0449
105 | RRIRHRPPRLPRPRPRPNPPPRP | 0.0899
106 | RRIRIRPPRLPRPRPRPASEPRP | 0.149
107 | RRIRNRPPRLPRPRPRPEYSPRP | -0.272
108 | RRIRDRPPRLPRPRPRPARRPRP | 0.59
109 | RRIRPRPPRLPRPRPRPFNMPRP | -0.949
110 | RRIRSRPPRLPRPRPRPMGNPRP | 0.0909
111 | RRIRQRPPRLPRPRPRPKIKPRP | -0.273
112 | RRIRYRPPRLPRPRPRPSYHPRP | -1.21
113 | RRIRHRPPRLPRPRPRPDFIPRP | -0.391
114 | RRIRLRPPRLPRPRPRPEVKPRP | -0.108
115 | RRIRLRPPRLPRPRPRPTNEPRP | -0.127
116 | RRIRDRPPRLPRPRPRPIWFPRP | -0.192
117 | RRIRHRPPRLPRPRPRPRLTPRP | -0.176
118 | RRIRPRPPRLPRPRPRPQHHPRP | -0.302
119 | RRIRWRPPRLPRPRPRPTCIPRP | 0.248
120 | RRIRDRPPRLPRPRPRPMEMPRP | 0.0165
121 | RRIRHRPPRLPRPRPRPDKEPRP | -0.00149
122 | RRIRTRPPRLPRPRPRPNILPRP | -0.484
123 | RRIRERPPRLPRPRPRPAYQPRP | 0.0953
124 | RRIRFRPPRLPRPRPRPKCNPRP | -0.238
125 | RRIRQRPPRLPRPRPRPSKIPRP | -0.143

Row | Sequence | shrunken log2 fold change
126 | RRIRERPPRLPRPRPRPTIWPRP | -0.222
127 | RRIRNRPPRLPRPRPRPMTWPRP | 0.0964
128 | RRIRPRPPRLPRPRPRPSGFPRP | 0.241
129 | RRIRMRPPRLPRPRPRPELSPRP | 0.0644
130 | RRIRKRPPRLPRPRPRPIHNPRP | -0.0348
131 | RRIRMRPPRLPRPRPRPLNWPRP | 0.225
132 | RRIRDRPPRLPRPRPRPCFKPRP | -0.0968
133 | RRIRERPPRLPRPRPRPPEPPRP | 0.333
134 | RRIRQRPPRLPRPRPRPVIIPRP | -1.01
135 | RRIRVRPPRLPRPRPRPYCGPRP | -0.502
136 | RRIRSRPPRLPRPRPRPRAWPRP | 0.0718
137 | RRIRRRPPRLPRPRPRPAECPRP | -0.00699
138 | RRIRWRPPRLPRPRPRPGQIPRP | -0.0275
139 | RRIRWRPPRLPRPRPRPIRNPRP | -0.334
140 | RRIRTRPPRLPRPRPRPLDRPRP | 0.0153
141 | RRIRARPPRLPRPRPRPFHWPRP | 0.277
142 | RRIRWRPPRLPRPRPRPWRWPRP | 0.0969
143 | RRIRYRPPRLPRPRPRPQVPPRP | -0.124
144 | RRIRTRPPRLPRPRPRPASMPRP | -0.212
145 | RRIRWRPPRLPRPRPRPINRPRP | -0.328
146 | RRIRFRPPRLPRPRPRPQWIPRP | -0.148
147 | RRIRPRPPRLPRPRPRPSVSPRP | -0.504
148 | RRIRPRPPRLPRPRPRPERQPRP | 0.153
149 | RRIRGRPPRLPRPRPRPCYIPRP | 0.0972
150 | RRIRQRPPRLPRPRPRPLDQPRP | -0.635
